Measurements: CN110028578A

Columns and labels:
[1] = biological target: A/Guangdong/17SF003/2016 H7N9 HA extracellular domain 11-505 (H3 numbering) with C-terminal T4 trime (Influenza A virus A/Guangdong/17SF003/2016 H7N9); test: BLI, biotinylated HA on streptavidin probe, antibody in solution
[2] = biological target: A/Shanghai/2/2013 H7N9 HA extracellular domain 11-505 (H3 numbering) with C-terminal T4 trimerisatio (Influenza A virus A/Shanghai/2/2013 H7N9); test: as above

B1: P52E03 IgG (antibody, V domains shown)
VH: QVQLVQSGGGLVQPGRSLRLSCAASGFTFDDYAMHWVRQAPGKGLEWVSGISWNSGSIGYADSVKGRFTISRDNAKNSLYLQMNSLRAEDTALYYCAKGLNSSGWYVYFDYWGQGTLVTVSS
VL: EIVLTQSPGTLSLSPGERATLSCRASQTVARNYLAWYQQKPGQAPRLLMYDPSSRPAGIPDRFSGSGSGTDFTLTISRLEPEDSAVYFCQQYGSPPLTFGGGTKIEIKR
B1 was tested, and the Kd [1] was 10.5 nM and the Kd [2] was 157 nM.
